In publication PMC7332966 (2020) one finds Kd data, which are given here for one molecule.

For this assay, the target named is FANCD2 (from His6-3C-FANCD2, His6-tag cleaved by 3C protease) (human, UniProt Q9BXW9 1-1451).
Chain of FANCD2 (from His6-3C-FANCD2, His6-tag cleaved by 3C protease) (Q9BXW9 whole entry): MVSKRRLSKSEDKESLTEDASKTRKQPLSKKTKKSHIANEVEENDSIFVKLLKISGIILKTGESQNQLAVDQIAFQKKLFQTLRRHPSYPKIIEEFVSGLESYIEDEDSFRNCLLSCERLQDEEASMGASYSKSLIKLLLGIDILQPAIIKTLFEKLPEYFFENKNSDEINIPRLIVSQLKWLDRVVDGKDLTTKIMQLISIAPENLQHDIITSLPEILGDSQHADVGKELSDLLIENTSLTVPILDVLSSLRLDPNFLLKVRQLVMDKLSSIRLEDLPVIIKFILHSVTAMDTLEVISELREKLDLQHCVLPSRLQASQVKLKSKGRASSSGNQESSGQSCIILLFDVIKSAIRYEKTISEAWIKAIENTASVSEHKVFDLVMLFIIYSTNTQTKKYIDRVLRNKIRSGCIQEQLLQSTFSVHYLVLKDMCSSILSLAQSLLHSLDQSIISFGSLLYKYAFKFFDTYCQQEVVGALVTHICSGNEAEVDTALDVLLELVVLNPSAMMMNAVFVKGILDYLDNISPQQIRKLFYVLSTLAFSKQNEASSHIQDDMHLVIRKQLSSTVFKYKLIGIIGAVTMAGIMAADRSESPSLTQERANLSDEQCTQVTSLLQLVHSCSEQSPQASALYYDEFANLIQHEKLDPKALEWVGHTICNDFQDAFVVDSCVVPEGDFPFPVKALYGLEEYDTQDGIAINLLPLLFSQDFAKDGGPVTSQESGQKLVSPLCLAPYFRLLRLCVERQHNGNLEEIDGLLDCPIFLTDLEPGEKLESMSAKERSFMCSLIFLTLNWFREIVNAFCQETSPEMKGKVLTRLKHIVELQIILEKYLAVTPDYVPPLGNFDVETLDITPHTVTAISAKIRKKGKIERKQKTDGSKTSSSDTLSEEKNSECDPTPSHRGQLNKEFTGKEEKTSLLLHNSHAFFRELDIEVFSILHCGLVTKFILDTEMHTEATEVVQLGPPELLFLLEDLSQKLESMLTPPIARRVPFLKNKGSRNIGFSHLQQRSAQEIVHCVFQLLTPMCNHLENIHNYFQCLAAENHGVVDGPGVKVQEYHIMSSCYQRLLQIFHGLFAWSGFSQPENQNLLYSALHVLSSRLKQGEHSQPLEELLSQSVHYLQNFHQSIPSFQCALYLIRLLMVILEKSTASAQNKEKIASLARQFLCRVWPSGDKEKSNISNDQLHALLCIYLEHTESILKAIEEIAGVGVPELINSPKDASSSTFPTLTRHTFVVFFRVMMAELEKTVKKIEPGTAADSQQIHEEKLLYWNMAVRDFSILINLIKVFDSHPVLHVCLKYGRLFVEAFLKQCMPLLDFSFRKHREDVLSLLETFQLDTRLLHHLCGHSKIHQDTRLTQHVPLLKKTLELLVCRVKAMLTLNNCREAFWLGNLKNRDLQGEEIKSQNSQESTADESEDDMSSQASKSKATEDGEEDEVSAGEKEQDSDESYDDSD

B1: His6-FANCI (wild type) (natural protein)
chain: MDQKILSLAAEKTADKLQEFLQTLREGDLTNLLQNQAVKGKVAGALLRAIFKGSPCSEEAGTLRRRKIYTCCIQLVESGDLQKEIASEIIGLLMLEAHHFPGPLLVELANEFISAVREGSLVNGKSLELLPIILTALATKKENLAYGKGVLSGEECKKQLINTLCSGRWDQQYVIQLTSMFKDVPLTAEEVEFVVEKALSMFSKMNLQEIPPLVYQLLVLSSKGSRKSVLEGIIAFFSALDKQHNEEQSGDELLDVVTVPSGELRHVEGTIILHIVFAIKLDYELGRELVKHLKVGQQGDSNNNLSPFSIALLLSVTRIQRFQDQVLDLLKTSVVKSFKDLQLLQGSKFLQNLVPHRSYVSTMILEVVKNSVHSWDHVTQGLVELGFILMDSYGPKKVLDGKTIETSPSLSRMPNQHACKLGANILLETFKIHEMIRQEILEQVLNRVVTRASSPISHFLDLLSNIVMYAPLVLQSCSSKVTEAFDYLSFLPLQTVQRLLKAVQPLLKVSMSMRDCLILVLRKAMFANQLDARKSAVAGFLLLLKNFKVLGSLSSSQCSQSLSVSQVHVDVHSHYNSVANETFCLEIMDSLRRCLSQQADVRLMLYEGFYDVLRRNSQLANSVMQTLLSQLKQFYEPKPDLLPPLKLEACILTQGDKISLQEPLDYLLCCIQHCLAWYKNTVIPLQQGEEEEEEEEAFYEDLDDILESITNRMIKSELEDFELDKSADFSQSTSIGIKNNICAFLVMGVCEVLIEYNFSISSFSKNRFEDILSLFMCYKKLSDILNEKAGKAKTKMANKTSDSLLSMKFVSSLLTALFRDSIQSHQESLSVLRSSNEFMRYAVNVALQKVQQLKETGHVSGPDGQNPEKIFQNLCDITRVLLWRYTSIPTSVEESGKKEKGKSISLLCLEGLQKIFSAVQQFYQPKIQQFLRALDVTDKEGEEREDADVSVTQRTAFQIRQFQRSLLNLLSSQEEDFNSKEALLLVTVLTSLSKLLEPSSPQFVQMLSWTSKICKENSREDALFCKSLMNLLFSLHVSYKSPVILLRDLSQDIHGHLGDIDQDVEVEKTNHFAIVNLRTAAPTVCLLVLSQAEKVLEEVDWLITKLKGQVSQETLSEEASSQATLPNQPVEKAIIMQLGTLLTFFHELVQTALPSGSCVDTLLKDLCKMYTTLTALVRYYLQVCQSSGGIPKNMEKLVKLSGSHLTPLCYSFISYVQNKSKSLNYTGEKKEKPAAVATAMARVLRETKPIPNLIFAIEQYEKFLIHLSKKSKVNLMQHMKLSTSRDFKIKGNILDMVLREDGEDENEEGTASEHGGQNKEPAKKKRKK
modifications: RED-tris-NTA dye (NanoTemper) on the His6 tag
What is called Kd is the concentration at which binding is half-saturated. The low end stands for a tighter complex, the high end for a looser complex. B1: the Kd turned out to be 11 nM.
